According to patent US20160369002A1 (INNATE PHARMA, published 2016):
Each block holds one binder with its values, some of them ahead of it.

What was measured:
Human CD64 [1] = molecular target: T1, Human CD64 (human, UniProt P12314 16-288, limits assumed); assay: SPR (Biacore T100), bispecific immobilised on CM5 chip, soluble CD64 0.7-60 nM, 1:1 kinetic model
T1 construct: also called FcγRI
Experimental: (§1) SPR measurements were performed on a Biacore T100 apparatus (Biacore GE Healthcare) at 25° C. In all Biacore experiments HBS-EP+ (Biacore GE Healthcare) and 10 mM NaOH, 500 mM NaCl served as running buffer and regeneration buffer respectively. Sensorgrams were analyzed with Biacore T100 Evaluation software. Recombinant human FcR's (CD64, CD32a, CD32b, CD16a and CD16b) were cloned, produced and purified.
(§2) The chip surface was activated with EDC/NHS (N-ethyl-N′-(3-dimethylaminopropyl) carbodiimidehydrochloride and N-hydroxysuccinimide (Biacore GE Healthcare)). Bispecific antibodies were diluted to 10 pg/ml in coupling buffer (10 mM acetate, pH 5.6) and injected until the appropriate immobilization level was reached (i.e. 800 to 900 RU). Deactivation of the remaining activated groups was performed using 100 mM ethanolamine pH 8 (Biacore GE Healthcare).
(§3) Monovalent affinity study was assessed following a classical kinetic wizard (as recommended by the manufacturer). Serial dilutions of soluble analytes (FcRs) ranging from 0.7 to 60 nM for CD64 and from 60 to 5000 nM for all the other FcRs were injected over the immobilized bispecific antibodies and allowed to dissociate for 10 min before regeneration. The entire sensorgram sets were fitted using the 1:1 kinetic binding model for CD64 and with the Steady State Affinity model for all the other FcRs.

Human CD32a [2] = molecular target: T2, Human CD32a (human, UniProt P12318 36-218, limits assumed); assay: SPR (Biacore T100), bispecific immobilised on CM5 chip, soluble FcR 60-5000 nM, Steady State Affinity model
T2 construct: also called FcγRIIA
T2 sequence (looked up): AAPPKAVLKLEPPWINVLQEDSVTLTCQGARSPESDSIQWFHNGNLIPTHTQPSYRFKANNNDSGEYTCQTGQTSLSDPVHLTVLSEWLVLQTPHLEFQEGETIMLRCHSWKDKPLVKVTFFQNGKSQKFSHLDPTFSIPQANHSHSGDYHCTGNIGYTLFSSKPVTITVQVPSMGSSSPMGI
Experimental: as §1, §2, §3

Human CD32b [3] = molecular target: T3, Human CD32b (human, UniProt P31994 46-217, limits assumed); assay: as above
T3 construct: also called FcγRIIB
T3 sequence (looked up): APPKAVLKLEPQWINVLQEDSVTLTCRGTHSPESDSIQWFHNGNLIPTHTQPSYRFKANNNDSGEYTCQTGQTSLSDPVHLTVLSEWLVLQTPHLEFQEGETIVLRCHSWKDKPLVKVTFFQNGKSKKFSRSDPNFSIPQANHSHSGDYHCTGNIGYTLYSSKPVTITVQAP
Experimental: as §1, §2, §3

Human CD16a [4] = molecular target: T4, Human CD16a (human, UniProt P08637 17-208); assay: as above
T4 construct: also called FcγRIIIa
Experimental: as §1, §2, §3

Human CD16b [5] = molecular target: T5, Human CD16b (human, UniProt O75015 17-200); assay: as above
T5 construct: also called FcγRIIIb
Experimental: as §1, §2, §3

Human CD64 [6] = molecular target: T1, Human CD64; assay: SPR (Biacore T100), bispecific immobilised on CM5 chip, soluble FcR
Experimental: as §1, §2, §3

Human CD32a [7] = molecular target: T2, Human CD32a; assay: as above
Experimental: as §1, §2, §3

Human CD32b [8] = molecular target: T3, Human CD32b; assay: as above
Experimental: as §1, §2, §3

Human CD16a [9] = molecular target: T4, Human CD16a; assay: as above
Experimental: as §1, §2, §3

Human CD16b [10] = molecular target: T5, Human CD16b; assay: as above
Experimental: as §1, §2, §3

[11] = molecular target: T6, Human NKp46 recombinant protein (human, UniProt O76036 22-258); assay: SPR (Biacore T100), bispecific captured on Protein-A chip, soluble recombinant human NKp46
T6 construct: also called recombinant human NKp46 proteins
Experimental: SPR measurements were performed on a Biacore T100 apparatus (Biacore GE Healthcare) at 25° C. In all Biacore experiments HBS-EP+ (Biacore GE Healthcare) and NaOH 10 mM served as running buffer and regeneration buffer respectively. Sensorgrams were analyzed with Biacore T100 Evaluation software. Protein-A was purchased from (GE Healthcare). Human NKp46 recombinant proteins were cloned, produced and purified at Innate Pharma.
as §2, with “Protein-A was” for “Bispecific antibodies were”, “μg/ml” for “pg/ml”, “2000” for “800 to 900”
Seven serial dilutions of human NKp46 recombinant proteins, ranging from 6.25 to 400 nM were sequentially injected over the captured Bi-Specific antibodies and allowed to dissociate for 10 min before regeneration. The entire sensorgram sets were fitted using the 1:1 kinetic binding model.

T5 sequence (O75015 17-200 limits assumed): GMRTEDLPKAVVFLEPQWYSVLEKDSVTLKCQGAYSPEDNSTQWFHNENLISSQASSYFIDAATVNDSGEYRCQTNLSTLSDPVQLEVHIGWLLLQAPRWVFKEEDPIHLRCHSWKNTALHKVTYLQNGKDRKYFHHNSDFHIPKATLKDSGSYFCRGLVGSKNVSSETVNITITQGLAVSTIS
T1 sequence (P12314 16-288 limits assumed): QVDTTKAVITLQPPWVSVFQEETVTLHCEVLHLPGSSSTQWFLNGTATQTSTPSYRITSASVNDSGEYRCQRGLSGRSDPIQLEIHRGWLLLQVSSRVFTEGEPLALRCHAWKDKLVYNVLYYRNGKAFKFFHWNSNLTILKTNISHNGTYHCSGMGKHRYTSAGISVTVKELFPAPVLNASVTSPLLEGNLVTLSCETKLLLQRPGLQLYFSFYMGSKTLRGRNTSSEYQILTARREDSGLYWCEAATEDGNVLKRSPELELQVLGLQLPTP
T4 sequence (P08637 17-208 limits assumed): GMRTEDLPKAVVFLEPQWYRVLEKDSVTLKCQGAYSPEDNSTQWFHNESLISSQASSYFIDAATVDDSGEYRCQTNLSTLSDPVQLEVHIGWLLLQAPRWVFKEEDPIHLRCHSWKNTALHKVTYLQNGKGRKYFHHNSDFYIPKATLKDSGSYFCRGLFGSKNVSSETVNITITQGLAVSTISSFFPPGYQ
T6 sequence (O76036 22-258 Q82K limits assumed): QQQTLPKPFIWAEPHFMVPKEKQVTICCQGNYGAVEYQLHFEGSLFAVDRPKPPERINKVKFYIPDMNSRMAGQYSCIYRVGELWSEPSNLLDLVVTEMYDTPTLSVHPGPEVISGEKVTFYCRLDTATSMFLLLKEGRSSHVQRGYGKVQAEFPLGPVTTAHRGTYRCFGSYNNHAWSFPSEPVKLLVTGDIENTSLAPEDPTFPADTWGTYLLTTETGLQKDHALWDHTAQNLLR

- Kd (Human CD64 [1]): 0.0007 µM
- Kd (Human CD32a [2]): 0.846 µM
- Kd (Human CD32b [3]): 1.85 µM
- Kd (Human CD16a [4]): 1.1 µM
- Kd (Human CD16b [5]): 2.43 µM
B1: CD19-F5-NKp46-3 (bispecific antibody, human IgG1, kappa)
chain 1: not shown
chain 2: not shown
chain 3: DIVMTQSPATLSVTPGDRVSLSCRASQSISDYLHWYQQKSHESPRLLIKYASQSISGIPSRFSGSGSGSDFTLSINSVEPEDVGVYYCQNGHSFPLTFGAGTKLELKASTKGPSVFPLAPSSKSTSGGTAALGCLVKDYFPEPVTVSWNSGALTSGVHTFPAVLQSSGLYSLSSVVTVPSSSLGTQTYICNVNHKPSNTKVDKRVEPKSCDKTH

- binding result (Human CD64 [6]): no binding (tested: 0.7 to 60 nM)
- binding result (Human CD32a [7]): no binding (tested: 60 to 5000 nM)
- binding result (Human CD32b [8]): no binding (tested: 60 to 5000 nM)
- binding result (Human CD16a [9]): no binding (tested: 60 to 5000 nM)
- binding result (Human CD16b [10]): no binding (tested: 60 to 5000 nM)
B2: CD19-F6-NKp46-3 (bispecific antibody, human IgG1, kappa)
chain 1: not shown
chain 2: not shown
chain 3: B1 chain 3

- binding result [11]: no binding
B3: CD19-F1-NKp46-6 (bispecific antibody)
chain: DIQLTQSPASLAVSLGQRATISCKASQSVDYDGDSYLNWYQQIPGQPPKLLIYDASNLVSGIPPRFSGSGSGTDFTLNIHPVEKVDAATYHCQQSTEDPWTFGGGTKLEIKGGGGSGGGGSGGGGSQVQLQQSGAELVRPGSSVKISCKASGYAFSSYWMNWVKQRPGQGLEWIGQIWPGDGDTNYNGKFKGKATLTADESSSTAYMQLSSLASEDSAVYFCARRETTTVGRYYYAMDYWGQGTTVTVSSGGGSSAPELLGGPSVFLFPPKPKDTLMISRTPEVTCVVVDVSHEDPEVKFNWYVDGVEVHNAKTKPREEQYNSTYRVVSVLTVLHQDWLNGKEYKCKVSNKALPAPIEKTISKAKGQPREPQVYTKPPSREEMTKNQVSLSCLVKGFYPSDIAVEWESNGQPENNYKTTVPVLDSDGSFRLASYLTVDKSRWQQGNVFSCSVMHEALHNHYTQKSLSLSPGSTGSQVQLQQPGSVLVRPGASVKLSCKASGYTFTSSWMHWAKQRPGQGLEWIGHIHPNSGISNYNEKFKGKATLTVDTSSSTAYVDLSSLTSEDSAVYYCARGGRFDDWGAGTTVTVSSVEGGSGGSGGSGGSGGVDDIVMTQSPATLSVTPGDRVSLSCRASQSISDYLHWYQQKSHESPRLLIKYASQSISGIPSRFSGSGSGSDFTLSINSVEPEDVGVYYCQNGHSFLMYTFGGGTKLEIK
notes: Single chain F1 format, complete mature protein
